Assay [1] concerns the target T1, MUC1-ED on Ad-GFP-infected airway epithelial cells (A549 cells; SAECs) (human, UniProt P15941 24-1255, endogenous sialylated glycans (alpha2,3- and alpha2,6-linked sialic acid)).
T1 construct: Endogenous MUC1 of human airway ECs; also called Ad-GFP-infected ECs
In words: Alexa Fluor 594-flagellin binding to Ad-GFP-infected A549 cells, 40 min at 4 C, fluorometry, Scatchard transformation; receptor named by the filing as MUC1-ED.

For assay [2], the target named is T2, MUC1-ED on Ad-NEU1-infected airway epithelial cells (A549 cells; SAECs), desialylated by overexpressed NEU1 (human, UniProt P15941 24-1255, glycans desialylated by overexpressed NEU1).
T2 construct: Endogenous MUC1 of human airway ECs that overexpress NEU1; also called Ad-NEU1-infected ECs
Description: Alexa Fluor 594-flagellin binding to Ad-NEU1-infected A549 cells, 40 min at 4 C, fluorometry, Scatchard transformation; receptor named by the filing as MUC1-ED.

Assay [3] concerns the target T2, MUC1-ED on Ad-NEU1-infected airway …. Description: Scatchard transformation of Alexa Fluor 594-flagellin binding to A549 cells.

The text below walks through data of patent publication US20170319655A1 (UNIVERSITY OF MARYLAND BALTIMORE, published 2017).

T2 sequence (P15941 24-1255 limits assumed): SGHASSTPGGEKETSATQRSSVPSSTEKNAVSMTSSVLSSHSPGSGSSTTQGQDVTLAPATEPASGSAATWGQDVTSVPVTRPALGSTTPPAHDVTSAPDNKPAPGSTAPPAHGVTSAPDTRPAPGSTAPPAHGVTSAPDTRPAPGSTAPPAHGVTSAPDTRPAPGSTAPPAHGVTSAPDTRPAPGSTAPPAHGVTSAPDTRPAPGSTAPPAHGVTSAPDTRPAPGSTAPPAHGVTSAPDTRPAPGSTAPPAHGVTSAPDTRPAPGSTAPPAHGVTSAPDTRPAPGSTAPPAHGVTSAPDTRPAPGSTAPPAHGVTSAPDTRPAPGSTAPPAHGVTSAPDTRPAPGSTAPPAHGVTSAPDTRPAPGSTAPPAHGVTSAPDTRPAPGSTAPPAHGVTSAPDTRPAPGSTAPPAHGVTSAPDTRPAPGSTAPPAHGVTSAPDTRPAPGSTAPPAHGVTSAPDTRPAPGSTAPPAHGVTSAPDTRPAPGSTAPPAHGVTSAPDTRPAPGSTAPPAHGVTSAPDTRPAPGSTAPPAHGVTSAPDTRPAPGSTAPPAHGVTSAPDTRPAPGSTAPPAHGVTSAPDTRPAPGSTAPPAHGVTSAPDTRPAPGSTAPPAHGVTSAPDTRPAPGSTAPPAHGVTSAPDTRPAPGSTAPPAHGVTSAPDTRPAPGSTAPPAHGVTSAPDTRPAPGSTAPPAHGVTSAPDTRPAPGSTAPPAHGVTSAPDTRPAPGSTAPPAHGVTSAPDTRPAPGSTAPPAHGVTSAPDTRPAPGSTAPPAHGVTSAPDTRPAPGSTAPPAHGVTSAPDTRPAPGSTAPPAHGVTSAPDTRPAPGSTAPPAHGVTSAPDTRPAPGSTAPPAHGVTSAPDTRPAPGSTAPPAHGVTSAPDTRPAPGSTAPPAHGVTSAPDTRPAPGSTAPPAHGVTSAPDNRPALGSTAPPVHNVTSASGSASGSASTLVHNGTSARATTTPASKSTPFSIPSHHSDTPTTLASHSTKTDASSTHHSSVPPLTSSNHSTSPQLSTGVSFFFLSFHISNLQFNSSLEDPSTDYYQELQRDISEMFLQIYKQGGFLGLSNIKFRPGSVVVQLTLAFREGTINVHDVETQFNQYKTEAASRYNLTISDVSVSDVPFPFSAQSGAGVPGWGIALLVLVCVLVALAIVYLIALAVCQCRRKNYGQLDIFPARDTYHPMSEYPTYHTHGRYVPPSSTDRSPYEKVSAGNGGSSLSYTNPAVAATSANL
T1 sequence (P15941 24-1255 limits assumed): as above

B1: Pseudomonas aeruginosa (Pa) flagellin purified from Pa strain PA01, Alexa Fluor 594-labeled (ligand)
chain: MALTVNTNIASLNTQRNLNASSNDLNTSLQRLTTGYRINSAKDDAAGLQISNRLSNQISGLNVATRNANDGISLAQTAEGALQQSTNILQRIRDLALQSANGSNSDADRAALQKEVAAQQAELTRISDTTTFGGRKLLDGSFGTTSFQVGSNAYETIDISLQNASASAIGSYQVGSNGAGTVASVAGTATASGIASGTVNLVGGGQVKNIAIAAGDSAKAIAEKMDGAIPNLSARARTVFTADVSGVTGGSLNFDVTVGSNTVSLAGVTSTQDLADQLNSNSSKLGITASINDKGVLTITSATGENVKFGAQTGTATAGQVAVKVQGSDGKFEAAAKNVVAAGTAATTTIVTGYVQLNSPTAYSVSGTGTQASQVFGNASAAQKSSVASVDISTADGAQNAIAVVDNALAAIDAQRADLGAVQNRFKNTIDNLTNISENATNARSRIKDTDFAAETAALSKNQVLQQAGTAILAQANQLPQAVLSLLR
modifications: Alexa Fluor 594 label (site not stated)
notes: also called purified flagellin; Alexa Fluor 594-flagellin
As usually defined, the Kd is the constant that tells how readily two partners part at equilibrium. Read a low Kd as tighter binding. B1: the Kd in assay [1] turned out to be 7.35 nM; in assay [2], 2.54 nM. Besides, the “fold reduction in Kd against Ad-GFP-infected ECs” value in assay [3] was found to be 2.9 fold.
